Measured values: patent US20230025129A1 (KYMAB, published 2023)
Substitutions are numbered along the chain they refer to.

T1: human MTP-2 expressed on HEK293 cells (human, UniProt Q8IU80 1-811)
T1 sequence: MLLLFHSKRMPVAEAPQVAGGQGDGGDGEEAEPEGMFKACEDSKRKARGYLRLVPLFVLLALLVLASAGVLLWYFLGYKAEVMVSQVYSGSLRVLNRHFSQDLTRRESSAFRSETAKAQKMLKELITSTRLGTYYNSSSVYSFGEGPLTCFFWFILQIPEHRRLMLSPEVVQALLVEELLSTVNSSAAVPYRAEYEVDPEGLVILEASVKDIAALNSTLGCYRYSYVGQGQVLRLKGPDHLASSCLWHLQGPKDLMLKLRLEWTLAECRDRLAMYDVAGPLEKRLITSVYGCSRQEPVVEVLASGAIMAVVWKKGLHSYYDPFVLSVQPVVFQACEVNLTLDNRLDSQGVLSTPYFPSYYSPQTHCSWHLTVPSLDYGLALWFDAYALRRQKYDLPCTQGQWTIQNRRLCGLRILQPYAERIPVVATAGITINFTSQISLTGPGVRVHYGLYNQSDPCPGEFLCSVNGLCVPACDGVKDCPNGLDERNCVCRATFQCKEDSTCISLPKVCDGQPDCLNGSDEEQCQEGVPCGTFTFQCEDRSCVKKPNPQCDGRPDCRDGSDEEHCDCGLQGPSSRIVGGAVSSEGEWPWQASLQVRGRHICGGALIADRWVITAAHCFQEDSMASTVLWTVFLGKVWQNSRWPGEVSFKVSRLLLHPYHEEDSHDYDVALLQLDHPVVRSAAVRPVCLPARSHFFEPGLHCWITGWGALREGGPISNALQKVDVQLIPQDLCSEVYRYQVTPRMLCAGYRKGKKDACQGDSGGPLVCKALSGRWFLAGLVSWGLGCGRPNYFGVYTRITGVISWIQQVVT

T2: human matriptase-2 ECD protein his tag (human, UniProt Q8IU80 78-811)
T2 sequence: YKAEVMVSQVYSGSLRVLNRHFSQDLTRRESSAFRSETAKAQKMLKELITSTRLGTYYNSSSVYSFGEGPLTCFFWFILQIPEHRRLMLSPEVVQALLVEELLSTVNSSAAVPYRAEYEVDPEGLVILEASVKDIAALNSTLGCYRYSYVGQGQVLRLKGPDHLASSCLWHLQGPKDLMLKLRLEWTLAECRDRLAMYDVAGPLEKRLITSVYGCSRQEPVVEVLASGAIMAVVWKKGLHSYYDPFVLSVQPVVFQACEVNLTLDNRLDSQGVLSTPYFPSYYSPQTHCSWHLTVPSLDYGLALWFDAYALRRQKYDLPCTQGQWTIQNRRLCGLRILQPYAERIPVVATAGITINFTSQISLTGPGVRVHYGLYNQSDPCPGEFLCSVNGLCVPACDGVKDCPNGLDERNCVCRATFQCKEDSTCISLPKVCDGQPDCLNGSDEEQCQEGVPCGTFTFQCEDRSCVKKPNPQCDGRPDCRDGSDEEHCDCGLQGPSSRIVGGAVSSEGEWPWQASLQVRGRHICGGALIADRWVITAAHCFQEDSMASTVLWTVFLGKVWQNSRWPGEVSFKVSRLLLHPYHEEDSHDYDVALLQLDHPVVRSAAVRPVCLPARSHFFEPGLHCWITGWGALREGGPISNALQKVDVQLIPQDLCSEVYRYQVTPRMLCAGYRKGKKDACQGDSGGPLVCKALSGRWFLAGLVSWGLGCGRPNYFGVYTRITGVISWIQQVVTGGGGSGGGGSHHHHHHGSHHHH

T3: mouse matriptase-2 ECD protein his tag (mouse, UniProt Q9DBI0 80-811)
T3 sequence: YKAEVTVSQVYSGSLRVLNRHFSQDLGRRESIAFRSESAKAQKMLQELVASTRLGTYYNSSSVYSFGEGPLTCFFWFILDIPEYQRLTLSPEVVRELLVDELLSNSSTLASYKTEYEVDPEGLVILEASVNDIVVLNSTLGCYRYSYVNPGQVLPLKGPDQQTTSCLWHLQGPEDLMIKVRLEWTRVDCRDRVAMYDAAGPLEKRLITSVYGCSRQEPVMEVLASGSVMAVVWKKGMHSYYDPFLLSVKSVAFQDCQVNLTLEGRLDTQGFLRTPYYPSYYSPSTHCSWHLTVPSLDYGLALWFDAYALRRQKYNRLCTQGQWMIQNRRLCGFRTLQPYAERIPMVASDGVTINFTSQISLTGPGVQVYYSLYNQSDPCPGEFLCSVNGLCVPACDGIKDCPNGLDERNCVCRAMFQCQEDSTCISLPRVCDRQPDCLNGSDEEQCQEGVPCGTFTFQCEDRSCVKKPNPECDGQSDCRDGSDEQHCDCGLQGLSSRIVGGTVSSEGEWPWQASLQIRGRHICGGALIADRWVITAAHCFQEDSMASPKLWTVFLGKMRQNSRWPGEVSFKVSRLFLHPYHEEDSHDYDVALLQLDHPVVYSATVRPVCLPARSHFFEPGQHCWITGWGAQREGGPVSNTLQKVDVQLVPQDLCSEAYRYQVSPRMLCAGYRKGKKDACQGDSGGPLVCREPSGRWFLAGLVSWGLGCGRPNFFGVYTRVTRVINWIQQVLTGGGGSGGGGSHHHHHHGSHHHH

B1: NORI-020 (antibody, human IgG4 S228P, lambda, V domains shown)
VH: QLQLQESGPGLVKPAETLSLMCTVSGDSISSSHYFWGWIRQPPGKGLEWIGSMYYSGSTYYNPSLKSRVTISVDTSNNQFSLKLRSVTAADTAVYYCVRHNNWGLDNYFDYWGQGTLVTVSS
VL: SYELTQPPSVSVSPGQTARITCSADALPDQYAYWYQQKPGQAPLLVIYKDSERPSGIPERFSGSSSGTIVTLTIRGVQAEDEADYYCQSADSSGSYAVFGGGTKLTVLG
B2: NORI-021 (antibody, human IgG4 S228P, lambda, V domains shown)
VH: QVQLVESGGGLVKPGGSLRLSCAAFGFTFSDYYMGWIRQAPGKGLEWVSHISSSGRTRYYADSVKGRFTISRDNAKNALYLQMDSLRAEDTAVFYCARAQLRYFDWLDYWGQGTLVTVSS
VL: QSVLTQPPSVSAAPGQKVTISCSGSGSNIGNNYVSWYQQVPGTAPKLLIYDNNKRPSGIPDRFSGSKSGTSATLGITGLQTGDEADYYCGTWDSSLSAGVFGGGTKLTVLG
B3: NORI-017 (antibody, human IgG4 S228P, lambda, V domains shown)
VH: QVHLVESGGAVVQPGRSLRLSCAASGFTFSNFDMHWVRQTPGKGLEWVTIIRYDETNIYYTESVKGRFTTSRDNSKNTLYLQMNSLRVEDTAVYYCARGWTGSYVFDYWGQGALVTVSS
VL: QSVLTQPPSVSEAPRQRVTISCSGGSSNIGNNAVNWYQQVPGKAPKLLIHYDDLLPSGVSDRFSGSKSGTSASLAISGLQSEDEADYYCAAWDDSLNGVVFGGGTKLTVLG
B4: NORI-019 (antibody, human IgG4 S228P, lambda, V domains shown)
VH: QVQLVESGGGVVQPGRSLRLSCAASGFTFSNFDMHWVRQAPGKGLEWVAIISYDGSDKYYEDSVKGRFTISRDNSKNTLYLQMNSLRAEDTAIYYCAKDGYGSSLFDHWGQGTLVTVSS
VL: B3 VL with G25S, Y37F, V40L, K43E, A44V, H50Y, A91V, V100L
B5: NORI-018 (antibody, human IgG4 S228P, lambda, V domains shown)
VH: QLQLVQSGAEVKKPGASVKVSCKASGYTFTTFGIVWVRQAPGQGLEWMGWISGYNGNTKYAQNLQGRVTMTTDTSTSTAYMELRSLRSDDTAIYYCARDRAIAPRFDPWGQGTLVTVSS
VL: SYELTQPPSVSVSPGQAASIPCSGDNLGDNFACWYQQKPGQSPVLVIYQDSKRPSGIPERFSGSNSGNTATLTINGTQAMDEADYYCQAWDSSTVVFGGGTKLTVLG
B6: NORI-015 (antibody, human IgG4 S228P, lambda, V domains shown)
VH: EVQLVESGGGLIQAGRSLRLSCAASGFTFDEHVIYWVRQIPGKGLEWISSISWKSDIIAYADSVKGRFTISRDNAKNALYLQMNSLRAEDTALYYCAREKDGDFYYYYFAMDVWGQGTTVTVSS
VL: QSALTQPPSASGSPGQSVTISCTGTSSNVGYYNYVSWYQQHPGKAPKLMIYEVNKRPSGVPDRFSGSKSANTASLTVSGLQADDEADYYCSSYAGSNKVVFGGGTKLTVLG
B7: NORI-016 (antibody, human IgG4 S228P, lambda, V domains shown)
VH: B6 VH with I34M, S52T
VL: B6 VL
B8: NORI-001 (antibody, human IgG4 S228P, kappa, V domains shown)
VH: QVQLVQSGAEVKKPGASVKVSCKVSGYTLSEFSIHWVRQAPGKGLEWMGGFDPEKGKTIYAQKFQGRVTMTEDTSTDTAYMDLSSLRSEDTAVYYCVTEGHFYGSGVFDFWGQGTLVTVSS
VL: DIQMTQSPSSLSASVGDRVTITCRPSQGLRFDFGWYQQRPGKAPRRLIYAASILQSGVPSRFSGSGSGTEFTLTISSLQPEDFATYYCLQHNNYPWTFGQGTKVEIKR
B9: NORI-007 (antibody, human IgG4 S228P, kappa, V domains shown)
VH: EVQLVESGGGLVKPGRSLRLSCTGSGFTFGDFGMSWFRQAPGKGLEWVCFIRSKPYGGTTDYAPSVKGRFTISRDDSISIAYLQMNSLTTEDTAVYYCSRNDILTGYYIFDYWGQGTQVTVSS
VL: DIQMTQSPSSLSASLGDSITITCQASQDITNYLIWYQHKPGKAPKLLIFDASNLETGVPSRFSGSGSGTDFTFTISSLQPEDYATYYCQQYYNLPLTFGGGTKVDIKR
B10: NORI-002 (antibody, human IgG4 S228P, kappa, V domains shown)
VH: B9 VH with K67R, T71S, I78K, S79G, A81V, T89R, D102E, Q118L
VL: B9 VL with S18R, I19V, Q27H, H38Q, K45R, N53I, Y83F
B11: NORI-004 (antibody, human IgG4 S228P, kappa, V domains shown)
VH: B9 VH with G68D, I78K, S79D, A81V, T89R, D102E, Q118L
VL: B9 VL with S18R, I19V, Q27H, H38Q, K45R, N53I, Y83F
B12: NORI-005 (antibody, human IgG4 S228P, kappa, V domains shown)
VH: EVHLVESGGGLIKPGRSLRLSCTGSGFTFGDFGLSWFRQAPGKGLEWISFIRSKPYGGTTDYAASVKGRFTISRDDSKSVAYLQMNSLKTEDSAVYYCARNEILTGYYIFDYWGQGILVTVSS
VL: DIQMTQSPSSLSASLGDRLTITCQASQDISNYLSWYQLQPGKAPKLLIFDASILETGVPSRFSGSGSGTDFSFTVSSLQPEDIATYYCQQYDNLPLTFGGGTKVDLKR

These binders were tested against T1, human MTP-2 expressed on HEK293 cells (assay: cell-based or functional assay).

Inhibition enzymatic activity human MTP2 on cells (IC50)	Binder
0.146 nM	B1
8.21 nM	B2
0.198 nM	B3
0.0978 nM	B4
2.22 nM	B5

Each binder was assayed against T2, human matriptase-2 ECD protein his tag (assay: cell-based or functional assay).

Inhibition enzymatic activity human MTP2 protein (IC50)	Binder
5.51 nM	B6
10.4 nM	B7
10.1 nM	B8
1.72 nM	B1
8.79 nM	B9
8.53 nM	B10
5.9 nM	B11
5.95 nM	B12
2.71 nM	B2
1.51 nM	B3
1.54 nM	B4
2.12 nM	B5

Each binder was assayed against T3, mouse matriptase-2 ECD protein his tag (assay: cell-based or functional assay).

Inhibition enzymatic activity mouse MTP2 protein (IC50)	Binder
5.7 nM	B6
9.27 nM	B7
12.4 nM	B8
1.44 nM	B1
39.3 nM	B9
16.2 nM	B10
22.4 nM	B11
12.7 nM	B12
1.9 nM	B2
0.489 nM	B3
0.911 nM	B4
0.589 nM	B5
